The values that follow come from patent US20060029603A1.

For this assay, the target named is GST-human NOGO-A56 (human) [GST: P08515]. The experiment in a line: SPR (Biacore 3000), GST-human NOGO-A56 on CM5, antibody as analyte; single experiment. In general terms: Surface plasmon resonance follows binding to a sensor surface in real time, without labels.
Chain of GST-human NOGO-A56 (human) [GST: P08515] (P08515 1-218, tags or fused parts left off): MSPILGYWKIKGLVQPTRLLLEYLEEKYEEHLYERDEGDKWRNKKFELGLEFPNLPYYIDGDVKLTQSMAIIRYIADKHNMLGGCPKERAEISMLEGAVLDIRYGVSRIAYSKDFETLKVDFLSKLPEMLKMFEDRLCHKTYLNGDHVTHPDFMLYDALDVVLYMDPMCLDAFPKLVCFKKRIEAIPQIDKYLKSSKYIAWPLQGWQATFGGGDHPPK

As to 11C7 (chimeric version) (antibody), the equilibrium dissociation constant (Kd) (commonly the equilibrium constant for the complex coming apart) came to 0.057 nM; the koff (usually the first-order rate constant of dissociation) was determined as 8.25e-05 s⁻¹; the kon – broadly, the rate constant with which the complex forms – stood at 1.44e+06 M⁻¹ s⁻¹.
